Assay: label from the status in PepcDB records
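Further: failed if final PepcDB status was selected cloned or expressed and not failed if soluble or beyond.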

MLFIKPADLREIVTFPLFSDLVQCGFPSPAADYVEQRIDLNQLLIQHPSATYFVKASGDSMIDGGISDGDLLIVDSAITASHGDIVIAAVDGEFTVKKLQLRPTVQLIPMNSAYSPITISSEDTLDVFGVVIHVVKAMR
protein production: failed

MLFISATNTNAGKTTCARLLAQYCNACGVKTILLKPIETGVNDAINHSSDAHLFLQDNRLLDRSLTLKDISFYRYHKVSAPLIAQQEEDPNAPIDTDNLTQRLHNFTKTYDLVIVEGAGGLCVPITLEENMLDFALKLKAKMLLISHDNLGLINDCLLNDFLLKSHQLDYKIAINLKGNNTAFHSISLPYIELFNTRSNNPIVIFQQSLKVLMSFALK
protein production: not failed

MLFNKMKNYKGFTAVKELWLLNLFILSVFTLSFSVSAASNDVSINNNELIGISYNTIQSDQIVVVFSFTKNITSLPIVKTSMTPAFVEVTFDANTYGKDLTETLINHAGIKGINLDAKTGKVVALISLEKLAVFDVSLNNEKEFSITFNYGESAEIVETLSPAGDDFINSIESIDFRLNGDNEGQILVYLKDSMLAADVNDKLGKLNVEFHNTEIIDDLLYKLDVTDFGTLVTSIETFKEGRNARLVIDVESGFIFTQKQEENLFILTVKKKPEKAPTYLGDTDDFTGRSISLSFQDIPVRTVLQIIADYNEFNLIISDTVTGNITLRLDGVPWDQALSIILKVKGLDKRMQGNILMVAPSDELAAREAQSLQAKQQVEELATLYSEYLQINYAKAAEFSELIKNEDTSILSDRGSVSVDERTNTLLIRDTAKSIEDIKRMITILDVPVRQVVIEARMVTVKDNMNEELGIRWGVTNTDGEFATSGSIEGASSANGTRGVTTPGVGQVPTIGDGLNVNLPVANAAGTIAFQVARLANGTILDLELSALEKENKGEVIASPRITTANQKEAYIEQGVEIPYQEAASSGATATQFKKAVLSLTVTPHITPDDKIILDLVVTQDTISDITSGFAPAIDTQRIGTQVLVNNGETIVLGGIYQQAIISTVSKIPILGDIPYLGWLFRNSSQLNEKKELLIFVTPRIVTEHF
protein production: failed

MLFNSFEFMLLFLPIAVIGYFLLQKVNKNFAKLFLVGMSLYFYAYFEVKYLLLIGVSLFTNAFIGQQIIQKINQKTRKVFLIVGLVFNISLLGYFKYSDFFLDNINTLFGTDVPLLKLLLPLGISFITFQKIGFLVDCYKRELTKFNFIDFCLFVTFFPQLIAGPIVHHSKVLPQFQDESKRRPNIENITKGLYIFGIGLTKKVVIADSLAQWADFGFSNVNQLSTTDAWVSSLAYTLQLYFDFSGYCDMAIGAALLFNIILPINFFSPYKSLSIQDFWRRWHMTLGRFFTQYVYIPLGGSRKGQIRTYLNLFTIFLISGIWHGAGWTFVIWGVLHGLAIVIHRLFKNLGGKMPKFIAWILTMGFVHVTWVFFRATSVEDALTMLNRMFNVNYLHIQTALIQFRPETLTGVSIMDNLIYSICNLFPFQVTGDHFNFQTILYLAIGIAIVLFTKNSIEKLESFRPKPIYALALASMFILSLMYLNRVSSFLYFNF
protein production: failed

MLFSSIVFLFYFFPAVLLLYYICSFSRRLQNVVLLFASLVFYAWGDFSFLGIMIVSIIINYILGLLVGKFREKKLLAKFFIFVTCAYNLGMLFVFKYLGFVVKNIDKVGNYKLSIPNIALPIGISYFTFKAISYVVDVYKNKVEAEKNPLNIGLYIAFFPEVISGPISRYVKVGEQIKNREHSWQKFSVGACRFITGLGKKVLISNSVSIIADKVFTMNTNGPVPVTLAWLGSIAYTIQIFFDFSGYSDMVIGLGLMFGFKIDENFNYPYISKSITEFWRRWHISLSSWFRDYIYIPLGGSRVDNKDKLIRNLFIVWVSTGVWHGAEWTFIMWGFLNFVFIALEKVFSFDDLKINPVIKHIYALFIINLGWVLFRSENLIQAGKYVACMFGLRGNAFWSNYTFMFVKENAVIFIAAVILSMPIAKKVNKLVYDKVPGYKILNGVYPIAVLGVFFVCISYLIKGTYNPFIYLKF
protein production: failed

MLFTMMVSLYTSRVVLATLGVEDFGIYNVVGGVVTMFAIISTSLSSAISRFITIELGKGDLRRLKTVFSTAVVIQFLMALVVVILAELIGVWFLNNKMNIPEVRMNAANWVLQFSIFTFGVNLICIPFNALIIAHERMSAFAYVSILEVSLKLLIVYLLVLMSVDKLIVYGALLLVVAIVITFAYFIYCRRHFKECKCFCRIDRFLLKRMLSFSGWNFIGASSAILRDQGVNIAINLFCGPTVNAARGMAVQVNHAINSFAQNFMTALNPQITKSFAVGDSKYMFTLIFQGARLSFYMLLFLSLPVLMSTEYILSIWLKIVPDYTIIFVRLVLIFAMCESISNPLITAMLATGSIRNYQIVVGGMQMMNFPISYILLERGYAPEITLYVAIGISLCCLALRLFMLRSMIQLPVRSYMKNVFFNICAVTIFSVAIPYLISLRLQSSFYSFLILSFSCIICSFMAIFFVGCKASERVFVVDQVRKLIKNNL
protein production: failed

MLFTNLDGVRNVVPVGHRQRRARPVGAGDVRAEKSLRYHLQEHGRLPLNEAVAVLSDVAEALADLKDREIVHRDLKPENILLLGGRRCLADFGIARYAEATIAKHTLKLAGTLAYMAPERWNNQRAASASDIYAPGVVAYELLEETPPFTGPYEHDYHDQHLHGPVRPSPQLRPSWRR
protein production: failed

MLGELDLATVILMQKCSYIVGLLSFIYLKMSNRGLPGPVHLAAGFAAMTVGSTLAGYGEWKILSPALWELGSVLFGIAGYALIWLGLKTLSDGRFVNRKTILFTCLVALLAIGVALQVAGNNTFRAALFNGCAALAYLGGAGVLFARWRKEPLLSRLALGAITGVSGLISLAVMKSVLFPGYASINLVTAFFFIIMLNFAISLFVMMLVAERSERKLLVLANTDPLTGVKNRRFFFQTMPAAPDPADAAMLLDIDHFKSINDRFGHAVGDSVLQEVARRISGSIRGGDVLARYGGEEFIIFLPGAGVDKACMIGERIRDAVAINEVDCGGLRVGVTISIGVATTGDMRCDLQMLAEKADRALYRAKTEGRNCVREALAA
protein production: failed

MLGGQYYLIAFILAVIVVWFTTPLINHWGRRAGYVDQPSARKMHHRPMVRLGGVSIFLGSLVALLVVWNLGAFGAMSTKGEWEVWGVVLGGLAFFGIGLFDDLFDLSPFSRLLAQVAIASVVWNMGVRIDFFTLPFLGNLVYLNILSLPITVIWLVGLANAINWIDGLDGLAAGVCGIAAVVLFVLCLFMEQSEAALIAAALAGGALGFLRYNFNPAQIFMGDGGAYFMGFTLGAVAVIGLVKVAAMATVAVTAVLLPYLVLAVPILDMSVVILSRVIKGKSPFKADKGHLHHRLINAGISHRLTVLFIYALTLWAGSLALGFSNIPSGWGFAIGATVLLIYLGWQVWRNSRNVGEQD
protein production: failed

MLGSQCAASEPVPAHSLWRGQDMSPNMRGALLMTGSMAAFTCNDTVVKLLGSEMPLFQILVLRSGLSAVWIYFLARRLGALHLRFGRRDRMLVALRCLSEIGATYFFLTALLNMPLANVTAVLQMLPLTVTLGAALFFGEQVGWRRMLAIGLGFCGMLLIVRPGPDGFTLHAIYAMAAVICVTARDLVTRRMSSHVPSLTVTLATALSVMSFGLVGSLTVDWVPLTTDLGLGLLAASLLVLGGYLFSVMVMRIGEVGFVAPFRYSSLLWALVLGWLVFGDWPDPLTMAGVALVVATGLFTLFRERASRHRG
protein production: failed

MLGYAAMNRTLRERDPPRRCNRDMQKKTWESEGIEYAATLAAQNFEDLREILLWNRDHGIDFYRCSSKLVPWNSQFDITALPNYERVQSLAAECGALVQDNDMRLTFHPSHWCKLASESDDTVARSVESVEHHGRWLDLMGVPRSPRYAINVHIGAHYGDKAATADRFCDVVSDLAPRARDRLTVENDDTESLWSVQELVTDVASQVDIPVTFDYHHHSFTDRGLTYREGFELARETWDGARPITHYSEPARLRPDSDASPQAHADHVAAVPTWL
protein production: failed

MLHFQHTSIINAPPEVVWKFHERPDILQLLTPPWQPVRVVRREGGLEVGAITEFKLFLGPVPLTWLARHTECDKYRLFTDTQISGPFESWIHRHQFQPENGKTKLIDDVSYVMPGGETIEFIGGWLIQAQLEAMFRYRHYVTKRECE
protein production: failed

MLHKVVQVRLYPSIEQKVQLAQAFGCSRWWWNYALNKSIETYKETGKGLTRAALNALLPNLKKAEDTCWLADCYSQVLQATTLNLTTAYKNFFEKRAGFPKFKSKHGKQSIQYPQNVKIVDGESSPVRAASRREGGFPSVGNWRSRSVSEGFTRKGNIKLPGNIGIVKAKIHRPIEGKIKTVTVSKTPSGKYLASILTEVEGVSTPLNTSEKPAITEGKIYGIDLGLKHFAVVSDGEKISKYDNPKHLAKHEKNLKRKQKKLARKVKGSNSRNRYRKVVAKVYERVSNSRQDFLHKLSYKLVSDSQAVIVENLHLLGMVRNHKLAKSISDAGWGMFTNFLAYKLERKGGKLVEIDRWFPSSKLCSNCFYQIGEMPLDVREWTCPSCGTHHDRDGNAAINIRAEGIRMIKAEGSAVSAVGGEVSPKLGRKSKFGHSPVITEADTVLGTPSQCG
protein production: failed

MLHSTAGWKNMDFKRFSLLIATRTILAMLTLIFLTQAIMSDGYHATVLLLSAVLLIQFFEITRFISKTNAELVRFFEAVRHADFSQRFELKSLGTGFDELGSTFTDILKRIQRVRSNQEAELRHIKAIIEHVPVPLLSIDHNGKITLWNNSVRRLFGTNAVTHIDDMAQFNEDFPKKLQSILAGERTLVHITIDDMEHKLIISATEITTATQQETLLSMQDIQSELALAQLQAWQDLVSVLTHEIMNSITPVASLAKTAVDLVQDVQEKTRTLPAITNEITEELDDVLGAVKTVARRSDGLMQFVTSYRRLTRLPSPNKKTISVATIFDHVTTLAKQNWQKDNIELTASITPQALDIHVDPDMIEQILLNLLLNAEHALITTAGVIEKKNSTPKIALNAFLNVRGHVIIEVADNGKGIENKNMTQIFVPFFTTKKEGSGVGLALTRQVMLAHNGKVAVRNNSQGGATFSLTF
protein production: failed

MLHTEKVEYVNQAHEDITGIARDKSIGTNLRDLTFFRQHNALAEQTLAKIFRGDQAKGEVQFSRTDGSRYWLKYIVSQFITDRGNHYALVSGEENSDEHNYKAELEHHHHHH
protein production: not failed

MLHYQIEFDDYRQHLVHVTLRFLADPNQELWLPTWIPGSYLIREFSKHIESVQAYDEAGRILEIKKQQKNRWRLFNTDHELITVEYDAYAYDLSVRGAYVDQTRLYINPACVCLALGGQEEKACEVELFLPQELKHFQLATGLPSKSLVKGRFTLKAENYDQLIDSPFELAEQTRFSFEAGNIAHEMVISGIHATNTERLKNDLEKICATEVALFGSAPFQNYTFMTMATGNSYGGLEHCNSTSLIIPRTDLPKLNEPEEPSEDYQRFLGLCSHEYFHSWLVKFIRPENFARYNLNQESYTSLLWIFEGFTSYYDDLILLRSGVISQESYLKLLKAQIDRYLQNPGRQIQSVAESSFDAWIKFYRQDENSNNAGTSYYNKGCLVALCLDLGLRLRGSSLDALLRLLYQNTEKGVQVNERTIFELCQQLTGDSWIEQINHLINTTDELPLDQLFPEFGLSYALKHDKKMPFGMKLQDKPEGVMVQQVNRYGAAATAGLSAQDVIIAIDGLKASEKLLATYAKQQGIITILAFRRDELMSFEVERSTIDLAEVELVVQDQSKADHWLKV
protein production: failed

MLHYVHVGNKKSPNTLLFVHGSGCNLKIFGELEKYLEDYNCILLDLKGHGESKGQCPSTVYGYIDNVANFITNSEVTKHQKNITLIGYSMGGAIVLGVALKKLPNVRKVVSLSGGARFDKLDKDFMEKIYHNQLDNNYLLECIGGIDNPLSEKYFETLEKDPDIMINDLIACKLIDLVDNLKNIDIPVKAIVAKDELLTLVEYSEIIKKEVENSELKIFETGKHFLLVVNAKGVAEEIKNFI
protein production: not failed

From a protein production outcome set (Wang et al. 2014)
